Data: patent US7713932B2, “Calcitonin drug-oligomer conjugates, and uses thereof” (Biocon Limited, priority 2001, dated 2010)
Values joined by “and” are separate entries in the source; they are usually repeats but may differ in a detail not shown here. Equal entries are not always repeated.

Key:
Type in all cases: in vitro ADME
[1] = system: Chymotrypsin; test: Enzymatic stability: 0.5 U/mL chymotrypsin digest; conditions: for % Remaining Following 0.5 U/mL Chymotrypsin Digest: replicate columns; for % Remaining, Control: Control tube (1 mM HCl, no enzyme)
Experimental: (§1) Compounds, supplied as lyophilized powders, are resuspended in 10 mM phosphate buffer pH 7.4 and then submitted for concentration determination by HPLC. The phosphate buffer is used to create a solution with a pH that is optimum for activity of each particular gut enzyme. Aliquots of the compound thus prepared are transferred to 1.7 mL microcentrifuge tubes and shaken in a 37° C. water bath for 15 minutes to allow compounds to equilibrate to temperature. After 15 minutes, 2 μL of the appropriate concentrated gut enzyme is added to each tube to achieve the final concentration desired. Chymotrypsin and trypsin are resuspended in 1 mM HCl. Also, as a control, compounds are treated with 2 μL of 1 mM HCl. Immediately following additions, 100 μL of sample is removed from the control tube and quenched with either 25 μL of chymotrypsin/trypsin quenching solution (1:11% TFA:Isopropanol). This sample will serve as T=0 min. A sampling procedure is repeated at various time intervals depending on the gut enzyme used. Chymotrypsin has 15, 30 and 60 minute samples. Trypsin has 30, 60, 120 and 180 minute samples. Once all points have been acquired, a final sample is removed from the control tube to make sure that observed degradation is not temperature or buffer related. The chymotrypsin and trypsin samples may be collected directly into HPLC vials. RP-HPLC (acetonitrile gradient) is used to determine AUC for each sample and % degradation is calculated based from the T=0 min control. The results are provided below in Tables 1 to 4.

[2] = Enzymatic stability: 0.5 U/mL chymotrypsin digest; conditions: chymotrypsin 0.5 U/mL, pH 7.4, Non-Formulated, replicate columns, read-out: % Remaining Following 0.5 U/mL Chymotrypsin Digest
Experimental: as §1

[3] = system: Trypsin; test: Enzymatic stability: 1 U/mL trypsin digest; conditions: for % Remaining, Control: Control tube (1 mM HCl, no enzyme); for % Remaining following 1 U/mL Trypsin Digest: Non-Formulated, replicate columns
Experimental: as §1

[4] = Enzymatic stability: 1 U/mL trypsin digest; conditions: trypsin 1 U/mL, pH 7.4, Non-Formulated, replicate columns, read-out: % Remaining following 1 U/mL Trypsin Digest
Experimental: as §1

COCCOCCOCCOCCOCCOCCOCCOCCCCCCCC(=O)NCCCC[C@H](NC(=O)CNC(=O)[C@H](CC(C)C)NC(=O)[C@@H](NC(=O)[C@@H]1CSSC[C@H](N)C(=O)N[C@@H](CO)C(=O)N[C@@H](CC(N)=O)C(=O)N[C@@H](CC(C)C)C(=O)N[C@@H](CO)C(=O)N[C@@H]([C@@H](C)O)C(=O)N1)C(C)C)C(=O)N[C@@H](CC(C)C)C(=O)N[C@@H](CO)C(=O)N[C@@H](CCC(N)=O)C(=O)N[C@@H](CCC(=O)O)C(=O)N[C@@H](CC(C)C)C(=O)N[C@@H](Cc1c[nH]cn1)C(=O)N[C@@H](CCCCNC(=O)CCCCCCCOCCOCCOCCOCCOCCOCCOCCOC)C(=O)N[C@@H](CC(C)C)C(=O)N[C@@H](CCC(N)=O)C(=O)N[C@H](C(=O)N[C@@H](Cc1ccc(O)cc1)C(=O)N1CCC[C@H]1C(=O)N[C@@H](CCCNC(=N)N)C(=O)N[C@H](C(=O)N[C@@H](CC(N)=O)C(=O)N[C@H](C(=O)NCC(=O)N[C@@H](CO)C(=O)NCC(=O)N[C@H](C(=O)N1CCC[C@H]1C(N)=O)[C@@H](C)O)[C@@H](C)O)[C@@H](C)O)[C@@H](C)O
% Remaining Following 0.5 U/mL Chymotrypsin Digest ([1]; Buffered Formulation, 15 min): 88% (2×) and 86% | % Remaining Following 0.5 U/mL Chymotrypsin Digest ([1]; Buffered Formulation, 30 min): 73% and 88% and 86% | % Remaining Following 0.5 U/mL Chymotrypsin Digest ([1]; Buffered Formulation, 60 min): 61% and 69% and 84% | % Remaining, Control ([1]; Buffered Formulation, 60 min): 116% and 104% and 101% | % Remaining, Control ([1]; Non-Formulated, 60 min): 104% and 88% and 97% and 103% | remaining at 0.25 h ([2]; 15 min): 63% | remaining at 0.5 h ([2]; 30 min): 34% | % Remaining, Control ([3]; 60 min): 103% and 100% | % Remaining, Control ([3]; 120 min): 106% and 105% and 99% | % Remaining, Control ([3]; 180 min): 104% and 99% | remaining at 0.5 h ([4]; 30 min): 87% | remaining at 1 h ([4]; 60 min): 78% | remaining at 2 h ([4]; 120 min): 72% | remaining at 3 h ([4]; 180 min): 81%

CC(C)C[C@H](NC(=O)[C@H](CCCCN)NC(=O)CNC(=O)[C@H](CC(C)C)NC(=O)[C@@H](NC(=O)[C@@H]1CSSC[C@H](N)C(=O)N[C@@H](CO)C(=O)N[C@@H](CC(N)=O)C(=O)N[C@@H](CC(C)C)C(=O)N[C@@H](CO)C(=O)N[C@@H]([C@@H](C)O)C(=O)N1)C(C)C)C(=O)N[C@@H](CO)C(=O)N[C@@H](CCC(N)=O)C(=O)N[C@@H](CCC(=O)O)C(=O)N[C@@H](CC(C)C)C(=O)N[C@@H](Cc1c[nH]cn1)C(=O)N[C@@H](CCCCN)C(=O)N[C@@H](CC(C)C)C(=O)N[C@@H](CCC(N)=O)C(=O)N[C@H](C(=O)N[C@@H](Cc1ccc(O)cc1)C(=O)N1CCC[C@H]1C(=O)N[C@@H](CCCNC(=N)N)C(=O)N[C@H](C(=O)N[C@@H](CC(N)=O)C(=O)N[C@H](C(=O)NCC(=O)N[C@@H](CO)C(=O)NCC(=O)N[C@H](C(=O)N1CCC[C@H]1C(N)=O)[C@@H](C)O)[C@@H](C)O)[C@@H](C)O)[C@@H](C)O [Salmon Calcitonin]
% Remaining Following 0.5 U/mL Chymotrypsin Digest ([1]; Buffered Formulation, 15 min): 59% and 91% and 92% | % Remaining Following 0.5 U/mL Chymotrypsin Digest ([1]; Buffered Formulation, 30 min): 54% and 86% and 87% | % Remaining Following 0.5 U/mL Chymotrypsin Digest ([1]; Buffered Formulation, 60 min): 55% and 82% and 85% | % Remaining, Control ([1]; Buffered Formulation, 60 min): 102% and 98% and 103% | % Remaining Following 0.5 U/mL Chymotrypsin Digest ([1]; Non-Formulated, 15 min): 62% and 35% | % Remaining Following 0.5 U/mL Chymotrypsin Digest ([1]; Non-Formulated, 30 min): 30% and 26% and 40% and 13% and 42% | % Remaining Following 0.5 U/mL Chymotrypsin Digest ([1]; Non-Formulated, 60 min): 1.6% and 5% and 12% and 1% | % Remaining following 1 U/mL Trypsin Digest ([3]; 30 min): 80% and 50% | % Remaining following 1 U/mL Trypsin Digest ([3]; 60 min): 66% and 28% and 69% and 76% | % Remaining following 1 U/mL Trypsin Digest ([3]; 120 min): 44% and 7% and 46% and 59% | % Remaining following 1 U/mL Trypsin Digest ([3]; 180 min): 2% and 31% and 46%
